Experimental data: IntAct's records for PubMed 30073165

B1: Cannabinoid receptor 1 (Homo sapiens), P21554 (parent)
chain: MKSILDGLADTTFRTITTDLLYVGSNDIQYEDIKGDMASKLGYFPQKFPLTSFRGSPFQEKMTAGDNPQLVPADQVNITEFYNKSLSSFKENEENIQCGENFMDIECFMVLNPSQQLAIAVLSLTLGTFTVLENLLVLCVILHSRSLRCRPSYHFIGSLAVADLLGSVIFVYSFIDFHVFHRKDSRNVFLFKLGGVTASFTASVGSLFLTAIDRYISIHRPLAYKRIVTRPKAVVAFCLMWTIAIVIAVLPLLGWNCEKLQSVCSDIFPHIDETYLMFWIGVTSVLLLFIVYAYMYILWKAHSHAVRMIQRGTQKSIIIHTSEDGKVQVTRPDQARMDIRLAKTLVLILVVLIICWGPLLAIMVYDVFGKMNKLIKTVFAFCSMLCLLNSTVNPIIYALRSKDLRHAFRSMFPSCEGTAQPLDNSMGDSDCLHKHANNAASVHRAAESCIKSTVKIAKVTMSVSTDTSAEAL
partner: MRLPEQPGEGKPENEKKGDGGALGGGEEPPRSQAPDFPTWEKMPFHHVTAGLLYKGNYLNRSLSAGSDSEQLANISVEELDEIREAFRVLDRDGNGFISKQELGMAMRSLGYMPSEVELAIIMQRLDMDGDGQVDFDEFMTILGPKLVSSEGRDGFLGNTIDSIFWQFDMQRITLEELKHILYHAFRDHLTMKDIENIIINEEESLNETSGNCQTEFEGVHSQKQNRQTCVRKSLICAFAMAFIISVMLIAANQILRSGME

Variants of: B1
Conditions: with cabp8_human CALN1, Q9BXU9

effect of a mutation on the interaction | Variant
disrupting interaction strength | T321A;S322A
